Assay results: patent publication US20240108707A1, “CHAGAS DISEASE VACCINE ANTIGENS WITH IMPROVED STABILITY AND DECREASED AGGREGATION” (Baylor College of Medicine, priority 2019, published 2024)
Where two headings read alike, the source gives them in different places.

B1: Tc24-C4: Recombinant T. cruzi Tc24 with 4 cysteine residues mutated to serine residues (protein)
chain: MGASGSKGSTSDKGLASDKDGKNAKDRKEAWERIRQAIPREKTAEAKQRRIELFKKFDKNETGKLSYDEVHSGSLEVLKLDEFTPRVRDITKRAFDKARALGSKLENKGSEDFVEFLEFRLMLSYIYDFFELTVMFDEIDASGNMLVDEEELKRAVPKLEAWGAKVEDPAALFKELDKNGTGSVTFDEFAAWASAVKLDADGDPDNVPESA
modifications: synthetic recombinant protein based on TSA1 from T. cruzi
notes: Recombinant T. cruzi Tc24 with 4 cysteine residues mutated to serine residues
B2: TSA-1-C4: Recombinant T. cruzi TSA-1 fragment, four cysteines mutated to serine (C248S, C267S, C360S, C447S), plus 43 C-terminal amino acids (protein)
chain: MERNSGDLQLPQEIAMLVPNKTQVVPKSGGEGKVKDIFASPALVRAGGVMIAFVEGRTKNKLFPEVIDLSSSDIVAGYIKAPETWQSLVAEVTKEYWQAHTVLESANNSNHRVGVARLPTGITRGNKVFLLVGSYEERREIDDYIWKAEAWNIKVIEGEATQSTEVQPTQPINWSEPKPLFQTDSPNNKGDLKEFLGGGGSGIVMGNGTLVFPLTAKDESNKVFSLITYSTDDGQKWEIPGGVSSVASRSPRVTEWEEGTLLMVTYSEDGRKVFESRDMGKTWTEAFGTLPGVWLKSGPELPEVSLRVDALITATIEGRKVMLYTQKVRHFLEVDEPNALHLWVTDNNRTFHLGPFSVDSAENKTFANTLLYSDDALHLLQAKGDHESTAVSLARLTEELNTINSVLSTWVQLDASFSESSIPTAGLVGFLSNTTSSGDTWIDGYRSMNATVTKAAKVENGFKFTGPGSRATWPVNSRWDIKQYGFVDYNFTIVAMATIHQVPSESTPLLGASLRGNKRTKLIGLSYGAGGKWETVYDGTKTVQGGTWEPGREYQVALMLQDGNKGFVYVDGVLVGNPAMLPTPEERWTEFSHFYFGGDEGDSGSDATLTDVFLYNRPLSVGELKMIKEVED
modifications: synthetic recombinant protein based on TSA1 from T. cruzi
notes: Recombinant T. cruzi TSA-1 fragment, four cysteines mutated to serine (C248S, C267S, C360S, C447S), plus 43 C-terminal amino acids

Columns and labels:
T. cruzi [1] = settings: mice; cited from earlier work
[2] = Aggregation / stability of on-column refolded protein on storage, stirring and freeze-thaw (visual analysis, SDS-PAGE, Western blot); format: physicochemical; settings: for aggregation of on-column refolded protein on storage: stored at 4° C. one month, SDS-PAGE (TSA-1-C4: in PBS, also visual analysis, Western blot)
Method: FIG. 4A-C. On-column refolding of TSA-1-NT. A, chromatographic profile of TSA-1-NT refolded by Size Exclusion Chromatography; B, samples were collected and analyzed by SDS-PAGE under non-reducing condition aggregates (a), and refolded protein (b and c); C, refolded TSA1-NT (b) after one month at 4° C. under reducing (lanes 1,3) and non-reducing conditions (lane 2).
FIGS. 10A, B and C. SDS-PAGE analysis of refolded TSA-1 C4 by Size-Exclusion Chromatography. A, the collected fractions of the main peak of seven consecutive refolding batches of denatured TSA-1 C4 (in 1.6×100 XK column packed with 185 ml of Sepharose 6FF) were analyzed by 10% SDS-PAGE under non-reducing conditions; batch1 (Lanes 2 and 3), batch 2 (Lanes 4 and 5), batch 3 (Lanes 6 and 7), batch 4 (Lanes 8 and 9), batch 5 (Lanes 10 and 11), batch 6 (Lanes 12 and 13), batch 7 (Lanes 14 and 15). B, Refolded TSA-1-C4 was stored at 4° C. in refolding buffer (lanes 1,4), Tris-HCl (lanes 2 and 5) and PBS (lanes 3 and 6) buffers. Samples were analyzed by SDS-PAGE under non-reduced conditions before (lanes 1, 2 and 3) and after one month (lanes 4, 5 and 6) of storage at 4° C. C, the stability of refolded TSA-1-C4 was tested by orbital stirring at 25 rpm and 20° C. for 24 (lane 2), 48 (lane 3) and 120 h (lane 4), and by cycles of freezing (−80° C.)-thawing at 24 h (lane 5), 48 (lane6) and (lane 7). Molecular Weight marker (lane 1).
(§1) In order to develop as a recombinant protein vaccine that can be used in humans in endemic areas, the coding DNA for TSA-1-NT was identified and codon optimized for expression in E. coli. The synthesized DNA was cloned into pET41a, a bacterial expression vector with an IPTG inducible T7 promoter. The recombinant TSA-1-NT/pET41a plasmid DNA was transformed into E. coli BL21(DE3). […] The on-column refolded TSA-1-NT was soluble but aggregated when stored at 4° C. one month (FIG. 4C). Aggregation causes problems with reproducibility and consistency, and would prevent the protein from being developed into a vaccine formulation. We hypothesized that the reason for the aggregation was the interaction of four cysteine residues in the sequence of the molecule (C248, C267, C360, C447) that could lead to intermolecular disulfide bridges.
However, and more importantly, and unlike TSA-1 NT, after purification on a nickel column or ion-exchange chromatography (FIGS. 8A and B) and refolding on a size-exclusion column (FIGS. 9A and B). The refolded TSA-1-C4 was concentrated by ultrafiltration, analyzed by SDS-PAGE (FIG. 10A) and it was stable.

[3] = Solubility of recombinant protein expressed in E. coli BL21(DE3) (SDS-PAGE of soluble fraction and inclusion bodies; 8M urea); format: physicochemical; settings: for solubility of protein as expressed in E. coli: E. coli BL21(DE3), induced with 0.5 mM IPTG
Method: FIGS. 3A and B. SDS-PAGE of expressed wild-type TSA-1-NT in E. coli BL21(DE3) induced with 0.5 mM IPTG from 0-16 hours.
FIGS. 6A and B. SDS-PAGE of expressed TSA-1-C4 in E. coli BL21(DE3) induced with 0.5 mM IPTG over 16 hours.
as §1
The coding DNA for TSA-1-C4 (SEQ ID NO: 5) was codon optimized for expression in E. coli, synthesized by GenScript, and cloned into pET41a with an octahistidine-tag (SEQ ID NO: 11, HHHHHHHH, shaded in FIG. 5A) or without an octahistidine-tag (SEQ ID NO: 3, FIG. 2 and FIG. 5B) expressed at its C-terminus. The recombinant plasmid DNAs were transformed into E. coli BL21(DE3) and selected on LB agar plates containing 30 μg/mL of kanamycin. The correct sequences and reading frames were confirmed by double-strand DNA sequencing with vector flanking primers.

[4] = cited from earlier work
T. cruzi [5] = settings: formulated with E6020-SE; versus Tc24+E6020-SE; cited from earlier work
H1 Trypanosoma cruzi = assay: Therapeutic vaccine efficacy: parasitemia in H1 Trypanosoma cruzi-infected mice; format: in vivo; settings: 20 μg antigen IM, acute infection, compared to untreated controls
Method: FIGS. 11A and B. Therapeutic effect of TSA-1-C4 alone or with Tc24-C4 and in a combination with or without benznidazole (BZN) treatment. H1 Trypanosoma cruzi-infected mice were treated with Tc24-C4 and TSA-1-C4, […] and given orally 25 mg/kg BZN per day for 20 days. A, Kinetic parasitemia was recorded each 3 days during the acute infection. Standard bars represent the error of the mean. B, Area under the curve (AUC) was graphed using the simple method of Gagnon. Histograms represent the mean and standard bars the error of the mean.
Briefly, H1 Trypanosoma cruzi-infected mice were treated with Tc24-C4 and TSA-1-C4, 20 μg each and given orally 25 mg/kg BZN per day for 20 days. Kinetic parasitemia was recorded each 3 days during the acute infection (FIG. 11A), and the area under the curve (AUC) was graphed (FIG. 11B).

Molecule	protective immunity (T. cruzi [1])	aggregation of on-column refolded protein on storage [2]	aggregation when compounded into vaccine compositions ([2]; vaccine compositions)	solubility in 8M urea [3]	solubility of protein as expressed in E. coli [3]	solubility of protein as expressed in E. coli ([4]; E. coli (BL21))	aggregation on storage ([4]; purified protein stored at 4° C. for 9 days, Western blot, light-scattering, HPLC-RP)	protection (mouse survival rate and parasitemia levels in blood) (T. cruzi [5])	levels of parasites in the blood (parasitemia, AUC) (H1 Trypanosoma cruzi)	aggregation under stirring ([2]; after 120 h under orbital stirring, 25 rpm, 20° C.)	aggregation after cycles of freezing-thawing ([2]; freezing (−80° C.)-thawing at 24, 48 and 120 h)
TSA-1-NT: N-terminal fragment of TSA-1 (aa 30-617), wild-type cysteines [reference compound]	induces protective immunity	aggregated	aggregates	soluble in 8M urea	expressed as insoluble protein in inclusion body						
B1						soluble protein	did not form any aggregation	similarly protected			
B2		No aggregation observed		soluble in 8M urea	expressed as insoluble protein in inclusion bodies				significantly lower levels of parasites in the blood	No aggregation observed	No aggregation observed
